Experiments:
[1] = target: PTH1 receptor (PTHR1), recombinant, on transfected HEK 293a cells (UniProt Q03431)
PTHR1 (Homo sapiens) = PTHR1 (Homo sapiens) (UniProt Q03431); assay: radioligand competition; conditions: cited from earlier work

Sequence of PTH (P01270 32-115): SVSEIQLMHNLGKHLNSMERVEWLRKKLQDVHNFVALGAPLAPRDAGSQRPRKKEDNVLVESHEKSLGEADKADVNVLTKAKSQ

potency in cyclic AMP generation (10 min) in HEK 293a cells expressing PTHR1, against PTH(1-34) [1] | Substance | Ki (PTHR1 (Homo sapiens))
5 fold | PTH-HRP (prepro-PTH(1-84) fused to the N-terminus of horseradish peroxidase, N175S mutant) (from UniProt P01270 32-115) (ligand) | –
– | PTH1-34 1-34 (from UniProt P01270) | 4 nM
– | PTH (from UniProt P01270) | 2 nM
